Results published in US20230242616A1 (LUDWIG MAXIMILIANS UNIVERSIT T M NCHEN, published 2023).
Where no end group is shown, it is not given here.

Assays:
[1] = biological target: T1, human macrophage migration-inhibitory factor (MIF) (human, UniProt P14174 2-115, limits assumed, Alexa-Fluor 488 or Monolith NT-647 (MST-Red) label where so named); assay: cell-based or functional assay
[2] = biological target: T1, human macrophage migration-inhibitory …; assay: fluorescence spectroscopic binding assay
[3] = biological target: T1, human macrophage migration-inhibitory …; assay: fluorescence spectroscopic titration, apparent Kd; Fluos-ngm titrated with MIF
Method: (§1) Peptides were dissolved and analyzed by MALDI-TOF-MS; ^{[a]}Peptides were synthesized with free amino-N-terminal and amidated C-terminal; ^{[b]}monoisotopic molar mass with an additional hydrogen [M + H]⁺; ^{[c]} App. Kds, are means (±SD) from three independent titration experiments which were performed in aqueous […], pH 7.4, containing 1% HFIP.
(§2) Fluorescence spectroscopy. Fluorescence spectroscopic titrations were performed as described^{28, 32}. Fluorescence spectra were recorded using a JASCO FP-6500 fluorescence spectrophotometer. […] Apparent KD values (app. KD) were calculated assuming a 1/1 binding model³².

[4] = biological target: T1, human macrophage migration-inhibitory …; assay: fluorescence spectroscopic titration, apparent Kd; Alexa-488-MIF titrated with ngm
Method: as §1, §2

[5] = biological target: T1, human macrophage migration-inhibitory …; assay: fluorescence spectroscopic titration; row labelled msR4M-L5 but with the K-K-K linker
Method: as §1, §2

[6] = biological target: T1, human macrophage migration-inhibitory …; assay: fluorescence spectroscopic titration
[7] = biological target: T1, human macrophage migration-inhibitory …; assay: fluorescence spectroscopic titration of Fluos-ngm-LD3 with increasing MIF [panel B]
Method: as §2

T1 sequence (P14174 2-115 limits assumed): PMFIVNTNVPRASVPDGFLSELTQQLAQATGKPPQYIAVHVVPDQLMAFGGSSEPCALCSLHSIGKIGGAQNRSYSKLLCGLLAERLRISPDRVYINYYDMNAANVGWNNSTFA

Binder	inhibitory capacity in the Dil-LDL foam cell assay [1]	Kd [2]	Kd [3]	Kd [4]	other results
NWYFGNFLCK-NH2 [ECL1 fragment 101-110]	~80 % of full-length msR4M-L1	51 nM			
DRFYPNDLW-NH2 [ECL2(187-195)]	~80 % of full-length msR4M-L1	286 nM			
ANWYFGNFLCK-NH2 [ECL1 fragment 100-110]	~80 % of full-length msR4M-L1	215 nM			
WYFGNFLCKKKKDRFYPNDLW-NH2 (designed binder, not fully specified; printed as WYFGNFLCK-KKK-DRFYPNDLW, also called ngm-LK3; msR4M-K3) [msR4M-LK3 ([ECL1(102-110)]-K-K-K-[ECL2(187-195)])]			36.4 nM	44.8 nM	Kd [5]: 30 to 40 nM
WYFGNFLCKRRRDRFYPNDLW-NH2 (designed binder, not fully specified; printed as WYFGNFLCK-RRR-DRFYPNDLW, also called ngm-LR3; msR4M-R3) [msR4M-LR3 ([ECL1(102-110)]-R-R-R-[ECL2(187-195)])]			16.8 nM	110 nM	Kd [6]: 22 nM
WYFGNFLCK-NH2 [ECL1(102-110)]	~80 % of full-length msR4M-L1	80 nM			
ICDRFYPNDLW-NH2 [ECL2 fragment 185-195]	~80 % of full-length msR4M-L1	324 nM			
WYFGNFLCKDDDDRFYPNDLW-NH2 (designed binder, not fully specified; printed as WYFGNFLCK-DDD-DRFYPNDLW, also called ngm-LD3; msR4M-D3) [msR4M-LD3 ([ECL1(102-110)]-D-D-D-[ECL2(187-195)])]			36 nM	246 nM	IC50 of inhibition of MIF-mediated monocyte migration (3D, single cell tracking) [1]: 18.4 nM; IC50 of inhibition of MIF-triggered Dil-oxLDL uptake (foam cell assay) [1]: 1.4 nM; Kd [6]: 33 nM; EC50 (read off the curve) [7]: ~30 nM
